# Results reported in the supplement of paper PMC10567573.
# B1: MLH1 (parent)
# chain: YNIATRRKALKNPSEEYGKILEVV
# Variants of: B1
# Experiment: protein stability index of a GFP-peptide fusion (GPS, HEK-293T) (PSI 1-6); higher = more stable
# Conditions: c terminus: a fixed tail appended
# 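Note: lentivirally expressed fusions sorted by FACS into six bins by GFP to DsRed ratio, PSI derived from sequencing read proportions per bin multiplied by bin number.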
row,Variant,protein stability index
1,YNIATRRKALKNPSMEYGKILEVV [E15M],2.54
2,YNIATRRKALKNPSREYGKILEVV [E15R],2.46
3,YNIATRRKALKNPSEEYAKILEVV [G18A],2.21
4,YNIATRRRALKNPSEEYGKILEVV [K8R],2.85
5,YNIATRRKALKNPSEERGKILEVV [Y17R],3.57
6,YNIATRRKALKNPSEEYGKILFVV [E22F],2.32
7,YNRATRRKALKNPSEEYGKILEVV [I3R],2.71
8,YNIATRRKALKNPSEEKGKILEVV [Y17K],3.37
9,YNIATRRKALKNPSEEYGKILEAV [V23A],3.69
10,YNIATRRKALKNPSECYGKILEVV [E16C],1.85
11,SNIATRRKALKNPSEEYGKILEVV [Y1S],3.29
12,YNIATRRKALKNPSEDYGKILEVV [E16D],2.75
13,YNIATRRKALKNPSEENGKILEVV [Y17N],4.08
14,YNIATRRKALKNPSAEYGKILEVV [E15A],2.1
15,YNIATRRLALKNPSEEYGKILEVV [K8L],1.99
16,YNIATRRVALKNPSEEYGKILEVV [K8V],2.2
17,YNIATRRKALKNPSEEYFKILEVV [G18F],2.16
18,YNIATRPKALKNPSEEYGKILEVV [R7P],3.14
19,YNIATRRKALKNPSEEYIKILEVV [G18I],2.16
20,YNIACRRKALKNPSEEYGKILEVV [T5C],2.17
21,YNDATRRKALKNPSEEYGKILEVV [I3D],3.19
22,YNIATRRKALKDPSEEYGKILEVV [N12D],3.32
23,YNIADRRKALKNPSEEYGKILEVV [T5D],3.06
24,YNIATRRKALENPSEEYGKILEVV [K11E],3.48

row,Variant,protein stability index
1,YNIATRRKALKNPSEEYGKILEQV [V23Q],3.34
2,YNIATRAKALKNPSEEYGKILEVV [R7A],2.5
3,YNIATRRKALKNPSDEYGKILEVV [E15D],2.7
4,YNIITRRKALKNPSEEYGKILEVV [A4I],2.54
5,YNIATRRKALKNPQEEYGKILEVV [S14Q],2.79
6,YNIATRRKALKNTSEEYGKILEVV [P13T],2.89
7,YNIATRRKALKNYSEEYGKILEVV [P13Y],2.59
8,YNIATRRKALKNPSEEYGKILEVH [V24H],3.11
9,YNCATRRKALKNPSEEYGKILEVV [I3C],2.69
10,YNIATRRKAEKNPSEEYGKILEVV [L10E],3.53
11,YNIATRRKALKNPSEEIGKILEVV [Y17I],2.95
12,YNIATRRKALKNPSEEPGKILEVV [Y17P],4.17
13,YNIATNRKALKNPSEEYGKILEVV [R6N],2.85
14,YNIATRRKALKNPSEEYGKVLEVV [I20V],4.05
15,YNIATRRKALKNPSEEYGKIYEVV [L21Y],2.46
16,YNIATRRKKLKNPSEEYGKILEVV [A9K],2.71
17,QNIATRRKALKNPSEEYGKILEVV [Y1Q],3.6
18,YNIATRRKALKNPSSEYGKILEVV [E15S],2.49
19,YNIATRRKALKNPSEEYGKILEEV [V23E],4.21
20,YNIATRRKALKAPSEEYGKILEVV [N12A],2.55
21,YNIATRRKALKNPSEEYGKILERV [V23R],3.22
22,YNIAERRKALKNPSEEYGKILEVV [T5E],3.54
23,ENIATRRKALKNPSEEYGKILEVV [Y1E],3.55
